The results in this text go back to patent US20240059769A1 (BIOLOJIC DESIGN, published 2024).

The labels stand for the following.
B1: BDG38.084 (antibody, V domains shown)
VH: QMQLVESGGGVVQPGRSLRLSCAASGFAFRTYGMHWVRQAPGKGLEWVAVIWDDGSNTHYADSVKGRFTITRDNSKNTLNLQMNSLRAEDTAVYYCVRAPQWYLTAEAFDLWGQGTMVTVSS
VL: SYVLTQPPSVSVAPGETATITCGGNLIGAYLVHWYQQKPGQAPVLVVYDDVDRPDRIPERFSGSNSGNTATLTISRVEAGDEADYYCQVWDHSTNTMVFGGGTKLTVL
B2: BDG38.095 (antibody, V domains shown)
VH: QMQLVESGGGVVQPGRSLTLSCAASGFEFRTYGMHWVRQAPGKGLEWVGVIWYDGSATHYADSVKGRFTITRDNSKNTLNLQMNSLRAEDTAVYYCVRAPQWYLTAEAFDLWGQGTMVTVSS
VL: SYVLTQPPSVSVAPGQTATITCGGALIGSRLVHWYQQKPGQAPVLVVYDDSDRPSRIPERFSGSNIGNTATLTISRVEEGDEADYYCQVWDYYSDSYVFGGGTKLTVL
B3: BDG38.108 (antibody, V domains shown)
VH: QMQLVESGGGVVQPGRSLRLSCAASGFEFRTYGMHWVRQAPGKGLEWVGVIWYDGSNTHYADSVKGRFTITRDNSKNTLNLQMNSLRAEDTAVYYCVRAPQWYLTAEAFDLWGQGTMVTVSS
VL: SYILTQPPSVSVAPGETATITCGGNLIGARLVHWYQQKPGQAPVLVIYDDSDRPSRIPERFSGSNIGNTATLTISDVEEGDEADYYCQVWDYYSNSYVFGGGTKLTVL
B4: BDG38.097 (antibody, V domains shown)
VH: QMQLVESGGGVVQPGRSLRLSCAASGFEFRTYGMHWVRQAPGKGLEWLGVIWYDGSATHYADSVKGRFTITRDNSKNTLNLQMNSLRAEDTAVYYCVRAPQWYLTAEAFDLWGQGTMVTVSS
VL: SYILTQPPSVSVAPGETATITCGGNLIGARLVHWYQQKPGQAPVLVIYDDSDRPSRIPERFSGSNIGNTATLTIERVEEGDEADYYCQVWDYYSDHYVFGGGTKLTVL
B5: BDG38.088 (antibody, V domains shown)
VH: QMQLVESGGGVVQPGRSLTLSCAASGFEFRTYGMHWVRQAPGKGLEWVGVIWYDGSNTHYADSVKGRFTITRDNSKNTLNLQMNSLRVEDTAVYYCVRAPQWYLTAEAFDLWGQGTMVTVSS
VL: SYVLTQPPSVSVAPGETATITCGGNLIGARLVHWYQQKPGQAPVLVIYDDSDRPSRIPERFSGSNIGNTATLTISDVEAGDEADYYCQVWDYSSNTYVFGGGTKLTVL
B6: BDG38.085 (antibody, V domains shown)
VH: QMQLVESGGGVVQPGRSLTLSCAASGFEFRTYGMHWVRQAPGKGLEWVGVIWYDGSNTHYADSVKGRFTITRDNSKNTLNLQMNSLRVEDTAVYYCVRAPQWYLTAEAFDLWGQGTMVTVSS
VL: SYVLTQPPSVSVAPGETATITCGGNLIGARLVHWYQQKPGQAPVLVIYDDSDRPSRIPERFSGSNIGNTATLTIERVEAGDEADYYCQVWDYSSNSYVFGGGTKLTVL
B7: BDG38.099 (antibody, V domains shown)
VH: QMQLVESGGGVVQPGRSLRLSCAASGFEFRTYGMHWVRQAPGKGLEWVGVIWYDGSNTHYADSVKGRFTITRDNSKNTLNLQMNSLRAEDTAVYYCVRAPQWYLTAEAFDLWGQGTMVTVSS
VL: SYILTQPPSVSVAPGETARITCGGNLIGARLVHWYQQKPGQAPVLVIYDDSDRPSRIPERFSGSNIGNTATLTIEDVEEGDEADYYCQVWDYSSDSYVFGGGTKLTVL
B8: BDG38.100 (antibody, V domains shown)
VH: QMQLVESGGGVVQPGRSLRLSCAASGFEFRTYGMHWVRQAPGKGLEWVGVIWYDGSNTHYADSVKGRFTITRDNSKNTLNLQMNSLRVEDTAVYYCVRAPQWYLTAEAFDLWGQGTMVTVSS
VL: SYVLTQPPSVSVAPGETARITCGGNLIGARLVHWYQQKPGQAPVLVIYDDSDRPSRIPERFSGSNIGNTATLTIERVEEGDEADYYCQVWDYYSNSYVFGGGTKLTVL
B9: BDG38.109 (antibody, V domains shown)
VH: QMQLVESGGGVVQPGRSLRLSCAASGFEFRTYGMHWVRQAPGKGLEWVGVIWYDGSNTHYADSVKGRFTITRDNSKNTLNLQMNSLRAEDTAVYYCVRAPQWYLTAEAFDLWGQGTMVTVSS
VL: SYILTQPPSVSVAPGQTATITCGGNLIGARLVHWYQQKPGQAPVLVIYDDSDRPSRIPERFSGSNIGNTATLTIERVEEGDEADYYCQVWDYSSNSYVFGGGTKLTVL
B10: BDG38.101 (antibody, V domains shown)
VH: QMQLVESGGGVVQPGRSLRLSCAASGFEFRTYGMHWVRQAPGKGLEWVGVIWYDGSATHYADSVKGRFTITRDNSKNTLNLQMNSLRVEDTAVYYCVRAPQWYLTAEAFDLWGQGTMVTVSS
VL: SYILTQPPSVSVAPGETATITCGGNLIGARLVHWYQQKPGQAPVLVIYDDSDRPSRIPERFSGSNIGNTATLTISRVEEGDEADYYCQVWDYSSNTYVFGGGTKLTVL
B11: BDG38.089 (antibody, V domains shown)
VH: QMQLVESGGGVVQPGRSLRLSCAASGFEFRTYGMHWVRQAPGKGLEWVGVIWYDGSATHYADSVKGRFTITRDNSKNTLNLQMNSLRVEDTAVYYCVRAPQWYLTAEAFDLWGQGTMVTVSS
VL: SYILTQPPSVSVAPGETATITCGGNLIGARLVHWYQQKPGQAPVLVIYDDSDRPSRIPERFSGSNIGNTATLTISRVEEGDEADYYCQVWDHSSNHYVFGGGTKLTVL
B12: BDG38.121 (antibody, V domains shown)
VH: QMQLVESGGGVVQPGRSLRLSCAASGFEFRTYGMHWVRQAPGKGLEWVGVIWYDGSNTHYADSVKGRFTITRDNSKNTLNLQMNSLRAEDTAVYYCVRAPQWYLTAEAFDLWGQGTMVTVSS
VL: SYILTQPPSVSVAPGETATITCGGNLIGARLVHWYQQKPGQAPVLVIYDDSDRPSRIPERFSGSNIGNTATLTISRVEAGDEADYYCQVWDYSSNTYVFGGGTKLTVL
B13: BDG38.111 (antibody, V domains shown)
VH: QMQLVESGGGVVQPGRSLTLSCAASGFEFRTYGMHWVRQAPGKGLEWVGVIWDDGSATHYADSVKGRFTITRDNSKNTLNLQMNSLRVEDTAVYYCVRAPQWYLTAEAFDLWGQGTMVTVSS
VL: SYVLTQPPSVSVAPGETATITCGGALIGARLVHWYQQKPGQAPVLVVYDDSDRPSRIPERFSGSNIGNTATLTISRVEAGDEADYYCQVWDYYANSYVFGGGTKLTVL
B14: BDG38.104 (antibody, V domains shown)
VH: QMQLVESGGGVVQPGRSLTLSCAASGFEFRTYGMHWVRQAPGKGLEWVGVIWYDGSATHYADSVKGRFTITRDNSKNTLNLQMNSLRAEDTAVYYCVRAPQWYLTAEAFDLWGQGTMVTVSS
VL: SYILTQPPSVSVAPGETATITCGGNLIGARLVHWYQQKPGQAPVLVIYDDSDRPSRIPERFSGSNIGNTATLTIEDVEEGDEADYYCQVWDYYSDSYVFGGGTKLTVL
B15: BDG38.105 (antibody, V domains shown)
VH: QMQLVESGGGVVQPGRSLTLSCAASGFEFRTYGMHWVRQAPGKGLEWVGVIWYDGSNTHYADSVKGRFTITRDNSKNTLNLQMNSLRVEDTAVYYCVRAPQWYLTAEAFDLWGQGTMVTVSS
VL: SYVLTQPPSVSVAPGETATITCGGNLIGARLVHWYQQKPGQAPVLVIYDDSDRPSRIPERFSGSNIGNTATLTIERVEAGDEADYYCQVWDYYSNSYVFGGGTKLTVL
B16: BDG38.102 (antibody, V domains shown)
VH: QMQLVESGGGVVQPGRSLRLSCAASGFEFRTYGMHWVRQAPGKGLEWVGVIWYDGSNTHYADSVKGRFTITRDNSKNTLNLQMNSLRAEDTAVYYCVRAPQWYLTAEAFDLWGQGTMVTVSS
VL: SYVLTQPPSVSVAPGETATITCGGNLIGARLVHWYQQKPGQAPVLVVYDDSDRPSRIPERFSGSNIGNTATLTIEDVEAGDEADYYCQVWDYSSNTYVFGGGTKLTVL
B17: BDG38.093 (antibody, V domains shown)
VH: QMQLVESGGGVVQPGRSLTLSCAASGFEFRTYGMHWVRQAPGKGLEWVGVIWYDGSNTHYADSVKGRFTITRDNSKNTLNLQMNSLRAEDTAVYYCVRAPQWYLTAEAFDLWGQGTMVTVSS
VL: SYVLTQPPSVSVAPGQTARITCGGNLIGARLVHWYQQKPGQAPVLVIYDDSDRPSRIPERFSGSNIGNTATLTIERVEEGDEADYYCQVWDYSADSYVFGGGTKLTVL
B18: BDG38.119 (antibody, V domains shown)
VH: QMQLVESGGGVVQPGRSLRLSCAASGFEFRTYGMHWVRQAPGKGLEWVGVIWYDGSNTHYADSVKGRFTITRDNSKNTLNLQMNSLRAEDTAVYYCVRAPQWYLTAEAFDLWGQGTMVTVSS
VL: SYILTQPPSVSVAPGETATITCGGNLIGARLVHWYQQKPGQAPVLVIYDDSDRPSRIPERFSGSNIGNTATLTISRVEEGDEADYYCQVWDYSSNTYVFGGGTKLTVL
B19: BDG38.113 (antibody, V domains shown)
VH: QMQLVESGGGVVQPGRSLTLSCAASGFEFRTYGMHWVRQAPGKGLEWVGVIWYDGSNTHYADSVKGRFTITRDNSKNTLNLQMNSLRAEDTAVYYCVRAPQWYLTAEAFDLWGQGTMVTVSS
VL: SYVLTQPPSVSVAPGETATITCGGNLIGARLVHWYQQKPGQAPVLVIYDDSDRPSRIPERFSGSNIGNTATLTIEDVEEGDEADYYCQVWDYSSDSYVFGGGTKLTVL
B20: BDG38.114 (antibody, V domains shown)
VH: QMQLVESGGGVVQPGRSLTLSCAASGFEFRTYGMHWVRQAPGKGLEWVGVIWYDGSNTHYADSVKGRFTITRDNSKNTLNLQMNSLRVEDTAVYYCVRAPQWYLTAEAFDLWGQGTMVTVSS
VL: SYILTQPPSVSVAPGQTATITCGGNLIGARLVHWYQQKPGQAPVLVIYDDSDRPSRIPERFSGSNIGNTATLTIEDVEEGDEADYYCQVWDYSANSYVFGGGTKLTVL
B21: BDG38.103 (antibody, V domains shown)
VH: QMQLVESGGGVVQPGRSLRLSCAASGFEFRTYGMHWVRQAPGKGLEWVGVIWYDGSNTHYADSVKGRFTITRDNSKNTLNLQMNSLRVEDTAVYYCVRAPQWYLTAEAFDLWGQGTMVTVSS
VL: SYVLTQPPSVSVAPGQTATITCGGNLIGARLVHWYQQKPGQAPVLVVYDDSDRPSRIPERFSGSNIGNTATLTISDVEEGDEADYYCQVWDYYSNSYVFGGGTKLTVL

Sequence of recombinant human IL-13 (P35225 35-146 limits assumed): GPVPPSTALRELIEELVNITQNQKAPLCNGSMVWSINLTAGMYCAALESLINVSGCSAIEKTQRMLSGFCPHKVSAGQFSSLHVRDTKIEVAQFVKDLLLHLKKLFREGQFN

This experiment has as its target recombinant human IL-13 (human, UniProt P35225 35-146). The experiment in a line: cell-based or functional assay.
With B1, the “HEK-IL-13 [nM] (IC50, STAT6 reporter)” value was found to be 0.0419 nM.

Turning to B2, the “HEK-IL-13 [nM] (IC50, STAT6 reporter)” value was determined as 0.0822 nM.

With B3, the “HEK-IL-13 [nM] (IC50, STAT6 reporter)” value came to 0.0659 nM.

For the molecule B4, the “HEK-IL-13 [nM] (IC50, STAT6 reporter)” value was determined as 0.0464 nM.

Turning to B5, the “HEK-IL-13 [nM] (IC50, STAT6 reporter)” value stood at 0.0486 nM.

For B6, the “HEK-IL-13 [nM] (IC50, STAT6 reporter)” value was 0.0236 nM.

As for B7, the “HEK-IL-13 [nM] (IC50, STAT6 reporter)” value is 0.0601 nM.

As to B8, the “HEK-IL-13 [nM] (IC50, STAT6 reporter)” value is 0.0801 nM.

For B9, the “HEK-IL-13 [nM] (IC50, STAT6 reporter)” value came to 0.063 nM.

For the molecule B10, the “HEK-IL-13 [nM] (IC50, STAT6 reporter)” value turned out to be 0.0403 nM.

With B11, the “HEK-IL-13 [nM] (IC50, STAT6 reporter)” value came to 0.075 nM.

Turning to B12, the “HEK-IL-13 [nM] (IC50, STAT6 reporter)” value is 0.0562 nM.

Take B13: the “HEK-IL-13 [nM] (IC50, STAT6 reporter)” value was 0.0545 nM.

For the molecule B14, the “HEK-IL-13 [nM] (IC50, STAT6 reporter)” value amounted to 0.0381 nM.

With B15, the “HEK-IL-13 [nM] (IC50, STAT6 reporter)” value amounted to 0.134 nM.

As for B16, the “HEK-IL-13 [nM] (IC50, STAT6 reporter)” value was determined as 0.0421 nM.

Turning to B17, the “HEK-IL-13 [nM] (IC50, STAT6 reporter)” value is 0.0402 nM.

B18: the “HEK-IL-13 [nM] (IC50, STAT6 reporter)” value turned out to be 0.0662 nM.

In the case of B19, the “HEK-IL-13 [nM] (IC50, STAT6 reporter)” value turned out to be 0.0284 nM.

Regarding B20, the “HEK-IL-13 [nM] (IC50, STAT6 reporter)” value came out at 0.0989 nM.

On to B21, for which the “HEK-IL-13 [nM] (IC50, STAT6 reporter)” value stood at 0.084 nM.
